Experimental data: patent US20240299561A1, “HISTIDINE-SELECTIVE POLYMER REAGENTS” (Nektar Therapeutics, priority 2021, published 2024)
Where “and” joins values, the source holds several entries; their conditions need not be identical. Equal entries are not always repeated.

How the values were obtained:
[1] = Hydrolytic stability of PEG conjugates with α-CBZ-histidine in PBS buffer, pH 7.4, 37° C. (HPLC)
Protocol: The reaction mixture was incubated at 37° C. and periodically analyzed by HPLC.

[2] = Reaction of histidine-linked conjugates with hydroxylamine (release of α-CBZ-His); conditions: pH 7.3, 25° C., at approximately 42 hours
From the text: FIGS. 14A and 14B provide further evidence of the histidine-selectivity of exemplary polymer reagents provided herein, as illustrated by reaction of their corresponding histidine-linked conjugates with hydroxylamine. The data described below is representative of an indirect method for evaluating covalent attachment of a polymer reagent as provided herein with a histidine residue of an amino acid, peptide, polypeptide or other active histidine containing molecule, by displacement of the histidine-attached molecule resulting from reaction of the histidine-linked polymer conjugate with hydroxylamine.
More particularly, FIG. 14A is a plot illustrating reaction of a histidine conjugate prepared by reaction of Reagent 1 with model compound, α-CBZ-His, with hydroxylamine at pH 7.4, 25° C. […] Histidine conjugates such as the illustrative conjugates tested, when treated with hydroxylamine, undergo a reverse reaction such that the unconjugated histidine compound is released. […] By approximately 22 hours, 100% of the conjugate has disappeared with release of α-CBZ-His.

Compound	degree of hydrolytic stability relative to the other conjugates tested [1]	% Hydrolysis at day 10 [1]	percent of intact conjugate remaining [2] [%]
COCCOCCOCCOCCOCCOCCOCCOCCOCCOCCOCCOCCOCCOCCOCCOCCOCCOCCOCCOCCOCCOCCOCCOCCOCCOCCOCCOCCOCCOCCOCCOCCOCCOCCOCCOCCOCCOCCOCCOCCOCCOCCOCCOCCOCCOCCOCCOCCOCCOCCOCCOCCOCCOCCOCCOCCOCCOCCOCCOCCOCCOCCOCCOCCOCCOCCOCCOCCOCCOCCOCCOCCOCCOCCOCCOCCOCCOCCOCCOCCOCCOCCOCCOCCOCCOCCOCCOCCOCCOCCOCCOCCOCCOCCOCCOCCOCCOCCOCCOCCOCCOCCOCCOCCOCCOCCOCCOCCOCCOCCOCCOCCOCCOCCN(C)C(=O)n1cnc(C[C@@H](NC(=O)OCc2ccccc2)C(=O)O)c1 [Conjugate 10, mPEG-N(CH3)—CO-α-CBZ-Histidine, 5 kDa]	highest degree of hydrolytic stability	1.8% and 1.9%	–
mPEG-N(CH2CF3)—CO-α-CBZ-Histidine, 5 kDa [Conjugate 14]	moderate degree of hydrolytic stability	–	–
mPEG-Piperazine-CO— α-CBZ-Histidine, 5 kDa [Conjugate 11]	moderate degree of hydrolytic stability	15.6%	4
